Measurements taken from the supplement of paper PMC10724198.
± gives the standard deviation of the averaged measurements.

Tested on: Saccharomyces cerevisiae
Assay: protein stability index of tFT-peptide fusion (C-terminal peptide) (PSI (0-1 scale)); higher = more stable (slower turnover)
Details: genetic background: wild type; temperature: 30 C
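Note: PSI is a weighted mean of sequencing reads over stability bins, variants kept only with over 10 reads, mCherry proximal and sfGFP distal, peptide attached via GGGS linker.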

**Q.** For TCRGGNPFRACC, which protein stability index is on record?
**A.** 0.707 ± 0.054

**Q.** With TCVLYSSGFIYF as the sequence, how does the protein stability index read?
**A.** 0.665 ± 0.065

**Q.** How did the protein stability index turn out when TDGLGGGVVGRE was run?
**A.** 0.664 ± 0.011

**Q.** How did the protein stability index turn out when TDIRMRRLNRDT was run?
**A.** 0.684 ± 0.029

**Q.** With TDISPRFVSVYL as the sequence, how does the protein stability index read?
**A.** 0.656 ± 0.017

**Q.** How did the protein stability index turn out when TEDGSYGESEQA was run?
**A.** 0.642 ± 0.023

**Q.** TEREAKKKKSKI was tested. Which protein stability index did it give?
**A.** 0.704 ± 0.026

**Q.** For TFAALRVFSFLS, which protein stability index is on record?
**A.** 0.666 ± 0.052

**Q.** With TFALAPLPPLPS as the sequence, how does the protein stability index read?
**A.** 0.68 ± 0.032

**Q.** Which protein stability index does the source give for TFCPPSRYRPRA here?
**A.** 0.709 ± 0.008

**Q.** Which protein stability index does the source give for TFFPPLPPPSPS here?
**A.** 0.702 ± 0.012

**Q.** With TFINVHRFCSAI as the sequence, how does the protein stability index read?
**A.** 0.647 ± 0.024

**Q.** How did the protein stability index turn out when TFISNYSCILSL was run?
**A.** 0.644 ± 0.013

**Q.** With TFPSADLYYSLL as the sequence, how does the protein stability index read?
**A.** 0.74 ± 0.049

**Q.** For TFSIACIPSSHK, which protein stability index is on record?
**A.** 0.652 ± 0.025

**Q.** For TFTSTTLARPFS, which protein stability index is on record?
**A.** 0.831 ± 0.036

**Q.** Which protein stability index does the source give for TGAGGPGPRNRK here?
**A.** 0.774 ± 0.064

**Q.** TGKHDIAQEQTK was tested. Which protein stability index did it give?
**A.** 0.679 ± 0.028

**Q.** Which protein stability index does the source give for TGLLGLVGSQVP here?
**A.** 0.67 ± 0.016

**Q.** How did the protein stability index turn out when TGMYHSQPYPAA was run?
**A.** 0.677 ± 0.0071

**Q.** How did the protein stability index turn out when TGRERLAEGDWR was run?
**A.** 0.692 ± 0.019

**Q.** Which protein stability index does the source give for TGRWRWMRDLLS here?
**A.** 0.63 ± 0.032

**Q.** TGVFFPPQLPLP was tested. Which protein stability index did it give?
**A.** 0.69 ± 0.023

**Q.** TGWASWVSVCLI was tested. Which protein stability index did it give?
**A.** 0.5587 ± 0.00094

**Q.** How did the protein stability index turn out when TGWLRLLHAASG was run?
**A.** 0.656 ± 0.045

**Q.** TGWWSPCRLDSS was tested. Which protein stability index did it give?
**A.** 0.722 ± 0.024

**Q.** THLPLPPPPPLL was tested. Which protein stability index did it give?
**A.** 0.655 ± 0.022

**Q.** How did the protein stability index turn out when THPFLRTHPPVE was run?
**A.** 0.714 ± 0.097

**Q.** THPPPGPHPSAA was tested. Which protein stability index did it give?
**A.** 0.717 ± 0.017

**Q.** With THSGRVRIVSFL as the sequence, how does the protein stability index read?
**A.** 0.654 ± 0.12

**Q.** For THTDQKTNHRRQ, which protein stability index is on record?
**A.** 0.69 ± 0.05

**Q.** Which protein stability index does the source give for TIAETIGCEKII here?
**A.** 0.785 ± 0.099

**Q.** TIETDIYAIARV was tested. Which protein stability index did it give?
**A.** 0.659 ± 0.041

**Q.** With TIGREENKIANI as the sequence, how does the protein stability index read?
**A.** 0.651 ± 0.016

**Q.** For TILKLLSEELDK, which protein stability index is on record?
**A.** 0.613 ± 0.025

**Q.** With TISVNLYLPDLL as the sequence, how does the protein stability index read?
**A.** 0.677 ± 0.057

**Q.** TKDRIIMKKKKE was tested. Which protein stability index did it give?
**A.** 0.7214 ± 0.0031

**Q.** How did the protein stability index turn out when TKHCRFCKSGFV was run?
**A.** 0.7133 ± 0.0063

**Q.** Which protein stability index does the source give for TKIPVLLKNSAN here?
**A.** 0.704 ± 0.062

**Q.** Which protein stability index does the source give for TKIQFTITLIGK here?
**A.** 0.578 ± 0.028

**Q.** For TKKKNKLRNKQE, which protein stability index is on record?
**A.** 0.664 ± 0.048

**Q.** TKKKRKKKNTKK was tested. Which protein stability index did it give?
**A.** 0.685 ± 0.061

**Q.** For TKKNKTKKGQNK, which protein stability index is on record?
**A.** 0.7099 ± 0.006

**Q.** With TKRQKEKKKNKE as the sequence, how does the protein stability index read?
**A.** 0.735 ± 0.042

**Q.** For TLCFRLGFLSYF, which protein stability index is on record?
**A.** 0.604 ± 0.091

**Q.** For TLDGGESSVVAV, which protein stability index is on record?
**A.** 0.685 ± 0.025

**Q.** With TLESRPALVFFS as the sequence, how does the protein stability index read?
**A.** 0.681 ± 0.0088

**Q.** For TLGTSPPPAYLS, which protein stability index is on record?
**A.** 0.638 ± 0.013

**Q.** Which protein stability index does the source give for TLPDSSSTSPNL here?
**A.** 0.696 ± 0.063

**Q.** Which protein stability index does the source give for TLPVPLPSVSHS here?
**A.** 0.685 ± 0.0098

**Q.** Which protein stability index does the source give for TLSHPANNKNNL here?
**A.** 0.681 ± 0.047

**Q.** For TLSPAPPPPLPP, which protein stability index is on record?
**A.** 0.636 ± 0.093

**Q.** Which protein stability index does the source give for TLSSGREVVGRW here?
**A.** 0.576 ± 0.012

**Q.** Which protein stability index does the source give for TLTLVIPTSRDQ here?
**A.** 0.717 ± 0.064

**Q.** With TLWENEKNNKHG as the sequence, how does the protein stability index read?
**A.** 0.705 ± 0.024

**Q.** With TMLLPPPNLATI as the sequence, how does the protein stability index read?
**A.** 0.71 ± 0.026

**Q.** With TMRSVSLRSVAS as the sequence, how does the protein stability index read?
**A.** 0.675 ± 0.022

**Q.** With TMVAVTSILGGL as the sequence, how does the protein stability index read?
**A.** 0.655 ± 0.084

**Q.** For TNIITRHNKKDK, which protein stability index is on record?
**A.** 0.657 ± 0.078

**Q.** For TNTEEKRKIRRS, which protein stability index is on record?
**A.** 0.697 ± 0.11

**Q.** For TPAYTETNGLST, which protein stability index is on record?
**A.** 0.73 ± 0.042

**Q.** For TPDLNLYSKVYG, which protein stability index is on record?
**A.** 0.695 ± 0.048

**Q.** With TPEQMKIKRNVE as the sequence, how does the protein stability index read?
**A.** 0.69 ± 0.009

**Q.** TPFVPLAPLPRS was tested. Which protein stability index did it give?
**A.** 0.728 ± 0.056

**Q.** With TPGMCDRQFGVD as the sequence, how does the protein stability index read?
**A.** 0.685 ± 0.028

**Q.** How did the protein stability index turn out when TPHQPPPPRPSP was run?
**A.** 0.7057 ± 0.0037

**Q.** TPIAGGAKLFHV was tested. Which protein stability index did it give?
**A.** 0.646 ± 0.058

**Q.** For TPKTRPRSRAVK, which protein stability index is on record?
**A.** 0.748 ± 0.015

**Q.** With TPKWRRRLNQGL as the sequence, how does the protein stability index read?
**A.** 0.719 ± 0.032

**Q.** How did the protein stability index turn out when TPPLPLPSPPCP was run?
**A.** 0.7249 ± 0.0035

**Q.** Which protein stability index does the source give for TPPLPPSLSPTH here?
**A.** 0.708 ± 0.0085

**Q.** How did the protein stability index turn out when TPPPHNRTKTTT was run?
**A.** 0.682 ± 0.072

**Q.** For TPPPNTPSPLTI, which protein stability index is on record?
**A.** 0.654 ± 0.033

**Q.** With TPPSHTVGIWAS as the sequence, how does the protein stability index read?
**A.** 0.683 ± 0.039

**Q.** For TPRTRPFNPPPR, which protein stability index is on record?
**A.** 0.729 ± 0.023

**Q.** How did the protein stability index turn out when TPSIFNRTNGPK was run?
**A.** 0.738 ± 0.043

**Q.** Which protein stability index does the source give for TPTSLPGPRVLS here?
**A.** 0.6596 ± 0.0054

**Q.** For TQEQVQKKLLKS, which protein stability index is on record?
**A.** 0.665 ± 0.015

**Q.** How did the protein stability index turn out when TQLEHQRESKSI was run?
**A.** 0.672 ± 0.021

**Q.** TQNYPSAFAIPA was tested. Which protein stability index did it give?
**A.** 0.552 ± 0.043

**Q.** For TRDEGWSSAARK, which protein stability index is on record?
**A.** 0.637 ± 0.062

**Q.** TRETKKSIKKQN was tested. Which protein stability index did it give?
**A.** 0.673 ± 0.058

**Q.** How did the protein stability index turn out when TRFCDFTSSVTT was run?
**A.** 0.711 ± 0.041

**Q.** Which protein stability index does the source give for TRGRGDGQLDSA here?
**A.** 0.699 ± 0.024

**Q.** How did the protein stability index turn out when TRGRGLSGGRFF was run?
**A.** 0.658 ± 0.037

**Q.** TRNGQKVGGVGA was tested. Which protein stability index did it give?
**A.** 0.725 ± 0.029

**Q.** TRNNDKQTDTIV was tested. Which protein stability index did it give?
**A.** 0.729 ± 0.048

**Q.** For TRPGKRNGRPPR, which protein stability index is on record?
**A.** 0.6995 ± 0.0008

**Q.** How did the protein stability index turn out when TRPSGSFLALPP was run?
**A.** 0.685 ± 0.05

**Q.** TRPTQNKQIKNI was tested. Which protein stability index did it give?
**A.** 0.6141 ± 0.0032

**Q.** For TRRLILSPIRHF, which protein stability index is on record?
**A.** 0.636 ± 0.015

**Q.** How did the protein stability index turn out when TRSISPGTFWTS was run?
**A.** 0.723 ± 0.018

**Q.** For TRSSHSHLETFV, which protein stability index is on record?
**A.** 0.684 ± 0.03

**Q.** For TSGLGYVDCPKL, which protein stability index is on record?
**A.** 0.709 ± 0.033

**Q.** For TSGNSTALKMGR, which protein stability index is on record?
**A.** 0.741 ± 0.059

**Q.** With TSIDRLLIRYEK as the sequence, how does the protein stability index read?
**A.** 0.649 ± 0.12

**Q.** For TSKHLTQRKESK, which protein stability index is on record?
**A.** 0.659 ± 0.0082

**Q.** With TSKRRRWGTTRK as the sequence, how does the protein stability index read?
**A.** 0.672 ± 0.074

**Q.** With TSPQHPWPPAPL as the sequence, how does the protein stability index read?
**A.** 0.694 ± 0.06

**Q.** For TSPSPPPTPCRS, which protein stability index is on record?
**A.** 0.702 ± 0.018

**Q.** Which protein stability index does the source give for TSPTPFVSCSLP here?
**A.** 0.629 ± 0.044
